# Experimental data taken from IntAct's records for PubMed 11711533.
# B1: Proline-serine-threonine phosphatase-interacting protein 1 (Mus musculus), P97814 (parent)
# chain: MMAQLQFRDAFWCRDFTAHTGYEVLLQRLLDGRKMCKDVEELLRQRAQAEERYGKELVQIARKAGGQTEMNSLRTSFDSLKQQTENVGSAHIQLALALREELRSLEEFRERQKEQRKKYEAIMDRVQKSKLSLYKKTMESKKAYDQKCRDADDAEQAFERVSANGHQKQVEKSQNKAKQCKESATEAERVYRQNIEQLERARTEWEQEHRTTCEAFQLQEFDRLTILRNALWVHCNQLSMQCVKDDELYEEVRLTLEGCDVEGDINGFIQSKSTGREPPAPVPYQNYYDREVTPLIGSPSIQPSCGVIKRFSGLLHGSPKTTPSAPAASTETLTPTPERNELVYASIEVQATQGNLNSSAQDYRALYDYTAQNSDELDISAGDILAVILEGEDGWWTVERNGQRGFVPGSYLEKL
# partner: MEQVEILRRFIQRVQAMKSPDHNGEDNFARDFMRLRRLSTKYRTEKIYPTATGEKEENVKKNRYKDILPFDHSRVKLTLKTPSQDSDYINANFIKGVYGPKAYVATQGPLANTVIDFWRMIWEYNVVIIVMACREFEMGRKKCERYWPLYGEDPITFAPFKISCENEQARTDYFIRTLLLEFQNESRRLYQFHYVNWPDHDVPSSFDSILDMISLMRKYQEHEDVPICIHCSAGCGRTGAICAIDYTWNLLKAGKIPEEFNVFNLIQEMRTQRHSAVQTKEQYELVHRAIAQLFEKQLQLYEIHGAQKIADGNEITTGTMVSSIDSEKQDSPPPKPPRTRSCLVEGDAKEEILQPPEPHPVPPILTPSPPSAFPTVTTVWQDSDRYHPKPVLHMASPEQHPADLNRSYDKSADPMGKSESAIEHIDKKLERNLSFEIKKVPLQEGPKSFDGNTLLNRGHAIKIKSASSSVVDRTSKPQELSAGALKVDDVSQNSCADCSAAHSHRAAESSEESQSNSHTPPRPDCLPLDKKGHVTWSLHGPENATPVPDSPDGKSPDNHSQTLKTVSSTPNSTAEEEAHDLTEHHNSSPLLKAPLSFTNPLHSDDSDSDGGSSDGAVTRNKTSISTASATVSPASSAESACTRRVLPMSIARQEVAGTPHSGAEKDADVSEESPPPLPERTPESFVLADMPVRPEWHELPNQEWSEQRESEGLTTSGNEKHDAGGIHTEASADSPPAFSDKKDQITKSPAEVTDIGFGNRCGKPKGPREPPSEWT
# B2: Tyrosine-protein phosphatase non-receptor type 12 (Mus musculus), P35831 (parent)
# chain: B1 partner
# Variants of: B1
# Conditions: with ptn12_mouse Ptpn12, P35831
row,Variant,effect of a mutation on the interaction
1,Y344F,disrupting interaction

# Variants of: B2
# Conditions: with ppip1_mouse Pstpip1, P97814
row,Variant,effect of a mutation on the interaction
1,C231S,decreasing interaction
